Where a chain is given by its changes, count along the chain named.
B1: Bacterial lipocalin Blc^G84 (natural protein, E. coli, UniProt P0A901 19-177, looked up)
chain: CSSPTPPRGVTVVNNFDAKRYLGTWYEIARFDHRFERGLEKVTATYSLRDDGGLNVINKGYNPDRGMWQQSEGKAYFTGAPTRAALKVSFFGPFYGGYNVIALDREYRHALVCGPDRDYLWILSRTPTISDEVKQEMLAVATREGFDVSKFIWVQQPGS
B2: Bacterial lipocalin Blc^E84 (natural protein, E. coli, UniProt P0A901 19-177, looked up)
chain: B1 chain with G66E

Molecular target: the molecule itself
Test: cross-linking

Protein | stoichiometry N
B1 | 2
B2 | 2
